Measured values from patent US7037504B2, “Epidermal growth factor protein and gene, and methods of use therefor” (Waratah Pharmaceuticals, Inc., priority 2001, dated 2006).

How the values were obtained:
carboxypeptidase B = target: T1, carboxypeptidase B (Homo sapiens, UniProt P15086); assay: Resistance in vitro to digestion with carboxypeptidase B; format: in vitro ADME
T1 sequence (P15086 111-417): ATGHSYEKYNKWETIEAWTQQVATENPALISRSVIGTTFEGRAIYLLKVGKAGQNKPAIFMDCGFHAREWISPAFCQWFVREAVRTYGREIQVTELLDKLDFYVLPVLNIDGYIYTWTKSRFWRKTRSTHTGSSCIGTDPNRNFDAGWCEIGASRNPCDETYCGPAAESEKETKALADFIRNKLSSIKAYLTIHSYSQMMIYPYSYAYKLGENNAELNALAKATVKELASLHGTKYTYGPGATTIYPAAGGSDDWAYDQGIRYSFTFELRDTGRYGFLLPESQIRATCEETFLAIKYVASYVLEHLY

[1] = test system: streptozotocin-induced diabetic rats; assay: Stimulation of islet neogenesis in vivo, glucose challenge in diabetic rats; design: species or system rat
Experimental: After treatment, rats were evaluated for ability to restore plasma glucose to resting levels, shown on the ordinate, as a function of time in minutes shown on the abscissa, after an oral glucose challenge.
EGF51N produced as above was used in an assay to measure to stimulation of islet neogenesis in vivo, as measured by lower blood concentration of treated animals to a subsequent challenge by glucose, to diabetic rats.

[2] = test system: anaesthetized gastric fistula rats; assay: Inhibition of gastric acid secretion in vivo; design: species or system rat; conditions: after intravenous bolus injection of 8 μg
[3] = relative enzyme concentration (ratio of carboxypeptidase to EGF) 0.01
[4] = relative enzyme concentration (ratio of carboxypeptidase to EGF) 0.1
[5] = relative enzyme concentration (ratio of carboxypeptidase to EGF) 1 (excess enzyme)

Molecule	% remaining (carboxypeptidase B; [3])	% remaining (carboxypeptidase B; [4])	% remaining (carboxypeptidase B; [5])	restoration of plasma glucose to resting levels after oral glucose challenge ([1]; 40 μg/kg/day of each of human gastrin and EGF51N, intraperitoneal continuous infusion for 14 days)	potency in stimulation of islet neogenesis ([1]; diabetic rats, glucose challenge, compared with positive control TGFα)	duration of inhibition of gastric acid production [2]	onset of inhibition of gastric acid production [2]
CC[C@H](C)[C@@H]1NC(=O)[C@H](Cc2ccc(O)cc2)NC(=O)CNC(=O)[C@H](C(C)C)NC(=O)[C@H](C(C)C)NC(=O)[C@@H](NC(=O)[C@H](CC(N)=O)NC(=O)[C@@H]2CSSC[C@@H]3NC(=O)[C@H](Cc4ccc(O)cc4)NC(=O)CNC(=O)[C@H](CC(=O)O)NC(=O)[C@H](Cc4c[nH]cn4)NC(=O)[C@H](CO)NC(=O)[C@H](CC(C)C)NC(=O)[C@@H]4CCCN4C(=O)[C@@H](NC(=O)[C@H](CCC(=O)O)NC(=O)[C@H](CO)NC(=O)[C@H](CC(=O)O)NC(=O)[C@H](CO)NC(=O)[C@@H](N)CC(N)=O)CSSC[C@H](NC(=O)[C@H](C(C)C)NC(=O)CNC(=O)[C@H](CC(=O)O)NC(=O)[C@H](Cc4c[nH]cn4)NC(=O)[C@H](CC(C)C)NC3=O)C(=O)N[C@@H](CCSC)C(=O)N[C@@H](Cc3ccc(O)cc3)C(=O)N[C@@H]([C@@H](C)CC)C(=O)N[C@@H](CCC(=O)O)C(=O)N[C@@H](C)C(=O)N[C@@H](CC(C)C)C(=O)N[C@@H](CC(=O)O)C(=O)N[C@@H](CCCCN)C(=O)N[C@@H](Cc3ccc(O)cc3)C(=O)N[C@@H](C)C(=O)N2)CSSC[C@@H](C(=O)N[C@@H](CCC(N)=O)C(=O)N[C@@H](Cc2ccc(O)cc2)C(=O)N[C@@H](CCCNC(=N)N)C(=O)N[C@@H](CC(=O)O)C(=O)N[C@@H](CC(C)C)C(=O)N[C@@H](CCCCN)C(=O)N[C@@H](Cc2c[nH]c3ccccc23)C(=O)N[C@@H](Cc2c[nH]c3ccccc23)C(=O)N[C@@H](CCC(=O)O)C(=O)N[C@@H](CC(C)C)C(=O)N[C@@H](CCCNC(=N)N)C(=O)O)NC(=O)[C@H](CCCNC(=N)N)NC(=O)[C@H](CCC(=O)O)NC(=O)CNC1=O [EGF53, reference compound]	75%	1%	1%				
EGF51N: modified human EGF, chain length 51 amino acids, C-terminus residue asparagine instead of glutamic acid; produced in Pichia pastoris (NSDSECPLSHDGYCLHDGVCMYIEALDKYACNCVVGYIGERCQYRSLKYYN; not fully specified; Recombinant human EGF51N)	75%	30%	6%	Rapid restoration to resting levels of plasma glucose	equivalent to the positive control TGFα	20 to 50 min	10 to 20 min
